Target: HLA-B1501 (purified MHC class I molecule) (human)
Assay: competition with a radiolabeled probe peptide for purified MHC class I

## AVINTTCNYGQ (modifications not checked) [Mtb8.4 5-15 peptide …]
  IC50: 10 nM

Reference: patent US20110183342A1
